This is an account of results in patent US20220112288A1 (published 2022).

The labels stand for the following.
B1: 75110_07E04A (antibody, V domains shown)
VH: EVQLVESGGGLVQPGGSLRLSCAVSGFTFSSYDMHWVRQATGKGLEWVSTIGTAGDTYYPGSVKGRFTISRENAKKFLYLQMNSLRAGDTAVYYCARGGYYYYGMDVWGQGTTVTVSS
VL: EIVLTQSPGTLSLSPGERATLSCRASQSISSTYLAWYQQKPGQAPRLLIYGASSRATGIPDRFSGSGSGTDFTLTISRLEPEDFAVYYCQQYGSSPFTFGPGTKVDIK
notes: Tested as antibody purified from AlivaMab Mouse hybridoma supernatant (human variable domains, kappa; mouse Fc, captured on anti-mouse IgG Fc sensors); also called ADS75110 purified AMM Ab
B2: 75110_10N21A (antibody, V domains shown)
VH: B1 VH with V24A, A40V, K76N, F77S
VL: EIVLTQSPGTLSLSPGERATLSCRASQSFISSYLAWYQQKPGQAPRLLIYGASSRATGIPDRFSGSGSGTDFTLTISRLDPEDFAVYYCQQSGNSPFTFGPGTKVDVK
notes: as for B1
B3: 75110_13C07A (antibody, V domains shown)
VH: B1 VH with G10V, V24A, S31N, I69L, K76N, F77S, N83H, G99A, Y101G
VL: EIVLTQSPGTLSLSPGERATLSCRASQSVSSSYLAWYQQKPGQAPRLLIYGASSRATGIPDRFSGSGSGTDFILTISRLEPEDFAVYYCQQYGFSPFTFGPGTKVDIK
notes: as for B1
B4: 75110_07B16A (antibody, V domains shown)
VH: QVQLQQWGAGLLKPSETLSLTCAVYGGSFSGYYWSWIRQSPGKGLEWIGEINQSGSTNYNPSLKSRVTISVDTSKDQFSLKLSSVTAADTAVYYCARVINWFDSWGQGSLVTVSS
VL: DIQMTQSPSSVSASVGDRVTITCRASQGISSWLAWYQQKPGKAPKLLIYDASSFQSGVPSRFSGSGSGTDFTLTISSLQTDDFATYYCQQANSFPYTFGQGTKLEIK
notes: as for B1
B5: 75110_11D03A (antibody, V domains shown)
VH: EVQLVESGGGLVQPGGSLRLSCAASGFTFSSYWMSWVRQAPGKGLEWVANINQDGNEKYYVDSVKGRFTISRDNAKNSLFLQMNSLRAEDTAVYYCAREGGQWLALDYWGQGALVTVSS
VL: B4 VL with L46F, Y49S, D50G, F54L, T80P, D81E, Y96W, L104V
notes: as for B1
B6: 75110_06E14A (antibody, V domains shown)
VH: QVQLQESGPGLVKPSETLSLTCTVSGGSISNYFWSWIRQPAGKGLEWIGRIYSSGNTNYNPSLKSRVTMSVDTSKNQFSLKLSSVTAADTAVYYCARDREDYYYYGMDVWGQGTTVTVSS
VL: DIQMTQSPSSLSASVGDRVTITCQASQDISNYLNWYQQKPGKAPKLLIYGASILETGVPSRFTGSGSGTDFTFTISSLQPEDIATYYCQQYDSLPITFGQGTRLEIK
notes: as for B1
B7: 75110_06K03A (antibody, V domains shown)
VH: B6 VH with N31T, F33Y, Y52N, S53T, N56S, N58T, D98E, R99L, D101R
VL: B6 VL with G50Y, T63S, I96L, Q100G, R103K, L104V
notes: as for B1
B8: 75110_06G04A (antibody, V domains shown)
VH: QVQLLESGPGLVKPSETLSLTCTVSGGSISSYYWSWIRQPAGKGLEWIGRIYISGSTNYNPSLKSRVTMSIDTSENQFSLNLSSVTAADTAVYYCARELERPYYYGMDVWGQGTTVTVSS
VL: B6 VL with G50N, I53T, T63S, S93N, I96L, Q100G, R103K, L104V, I106F
notes: as for B1
B9: 75110_08M20A (antibody, V domains shown)
VH: B6 VH with G8D, N31S, F33Y, S53A, N56S, D101G
VL: B6 VL with N31K, K45N, G50A, I53N, T63S, T85A
notes: as for B1

Residue numbers refer to the chain shown, from its start.

T1 sequence (P16003 26-390 limits assumed): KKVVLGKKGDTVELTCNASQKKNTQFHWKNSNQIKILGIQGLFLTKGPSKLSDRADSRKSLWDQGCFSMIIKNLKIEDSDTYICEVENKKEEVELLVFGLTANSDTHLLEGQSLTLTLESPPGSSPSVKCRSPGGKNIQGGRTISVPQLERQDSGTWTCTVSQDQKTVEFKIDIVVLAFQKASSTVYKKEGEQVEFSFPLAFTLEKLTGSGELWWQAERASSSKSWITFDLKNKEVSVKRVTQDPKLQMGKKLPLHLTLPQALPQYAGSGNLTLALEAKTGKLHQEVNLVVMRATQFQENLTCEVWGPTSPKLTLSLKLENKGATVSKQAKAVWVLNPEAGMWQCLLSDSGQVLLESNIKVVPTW

The assay concerns the target T1, Rhesus macaque CD4-HIS (Acro Biosystems, Cat. CD4-C52H7) (rhesus macaque, UniProt P16003 26-390).
T1 construct: Bought reagent; also called Rhesus CD4; rhesus CD4-HIS; not shown: His tag
Put plainly: BLI (Octet Red384); Ab on anti-mouse Fc (AMC) sensor; rhesus CD4-HIS 100/50/25 nM; global 1:1 fit.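 Note: antibodies loaded at 10 µg/mL, an unrelated mouse-derived antibody served as internal reference, curves fit over association and dissociation phases.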
B1 displayed a Kd of 2.6 nM, a Response of 0.02, a koff of 0.00042 s⁻¹ and a kon of 160000 M⁻¹ s⁻¹.
B2 registered a dissociation constant Kd of 8.2 nM, a Response of 0.07, a koff of 0.001 s⁻¹ and a kon of 130000 M⁻¹ s⁻¹.
The like results for B3 were, in that order, 3.9 nM, 0.05, 0.00085 s⁻¹ and 220000 M⁻¹ s⁻¹.
On to B4, for which the Kd came out at 13 nM, the Response stood at 0.17, the koff was determined as 0.0033 s⁻¹ and the kon came out at 250000 M⁻¹ s⁻¹.
The like results for B5 were, in that order, 3.5 nM, 0.11, 0.0018 s⁻¹ and 530000 M⁻¹ s⁻¹.
In turn, B6 displayed a Kd of 230 nM, a Response of 0.1, a koff of 0.00069 s⁻¹ and a kon of 3000 M⁻¹ s⁻¹.
B7 had a Kd of 7.8 nM, a Response of 0.13, a koff of 0.00035 s⁻¹ and a kon of 45000 M⁻¹ s⁻¹.
B8 had a Kd of 2.1 nM, a Response of 0.05, a koff of 0.0011 s⁻¹ and a kon of 510000 M⁻¹ s⁻¹.
As for B9, the dissociation constant (Kd) stood at 17 nM, the Response came to 0.17, the koff turned out to be 0.0022 s⁻¹ and the kon was 130000 M⁻¹ s⁻¹.
